Here are results for 1 substance from article PMC12805836.

Where “and” joins values, the source holds several entries; their conditions need not be identical. Identical values can stand only once.

For experiment [1], the target named is actinorhodopsin (ActR, ActRL06) from Nanopelagicus ca., produced in E. coli (Nanopelagicus ca.). As to the kind of experiment: SEC; analytical size-exclusion chromatography of ActR at low pH. (In general: Size exclusion chromatography separates by hydrodynamic size, large species first.)
For experiment [2] the target is unchanged. As to the kind of experiment: SEC; analytical size-exclusion chromatography of ActR at the neutral pH of the scramblase assays.
The target is the same in experiment [3]. As to the kind of experiment: negative stain electron microscopy; ActR from E. coli, purified through the metal affinity step, in elution buffer with DDM, pH 7.4, 8-240 ug/mL on grids, 2% uranyl acetate; preliminary single particle analysis.

A word on the stoichiometry N: it is the number of molecules, sites or subunits per partner or assembly. Regarding “actinorhodopsin (ActR, ActRL06) from Nanopelagicus ca., produced in E. coli (natural protein)”, the stoichiometry N in experiment [1] was 3; in experiment [2] it was 5 and 3; in experiment [3] it was 5.
